Source: patent US8822645B2, “Prostaglandin E2 dual variable domain immunoglobulins and uses thereof” (AbbVie Inc., priority 2008, dated 2014)

Experiments:
[1] = system: PGE2 / human EP4 receptor in HEK293 Gα16 cells; assay: EP4 bioassay (Ca++ flux, neutralization of PGE2); assay type: cell-based; settings: PGE2 VD in N-terminal position; EP4 bioassay, Ca++ flux; read-out: N-terminal VD PGE2 Neutralization EC50
Protocol: The ability of anti-PGE2 antibodies and anti-PGE2 containing DVD-Ig molecules to inhibit the cellular response of PGE2 was determined in a Ca++ flux assay in HEK293 Gα16 cells stably transfected with human EP4 receptor. Cells were plated in black/clear poly-D-lysine plates, (Corning #3667, Corning, N.Y.) and incubated with Ca++-sensitive dye (Molecular Devices) for 90 minutes. Stock PGE2 (in 200 proof ethanol) was diluted with FLIPR buffer (containing 1×HBSS (Invitrogen, Carlsbad, Calif.), 20 mM HEPES (Invitrogen, Carlsbad, Calif.), 0.1% BSA (Sigma, St. Louis, Mo.) and 2.5 mM Probenecid (Sigma, St. Louis, Mo.)). Anti-PGE2 antibodies, DVD-Ig molecules or isotype matched control antibodies were also pre-diluted in FLIPR buffer. 25 μl of PGE2 or pre-incubated PGE2/antibody mixture or pre-incubated PGE2/DVD-Ig molecule mixture was added to the wells pre-plated with cells. A dose response of PGE2 was done by a serial titration of PGE2 and was determined using FLIPR1 or Tetra (Molecular Devices). EC50 was determined using GraphPad Prism 5 (GraftPad Software, La Jolla, Calif.). […] Ca++ flux was monitored using FLIPR1 and data was analyzed using GraphPad Prism 5.
The ability of anti-PGE2 antibodies and anti-PGE2 containing DVD-Ig molecules to inhibit the cellular response of PGE2 was determined in a Ca++ flux assay using stably transfected human EP4 in HEK293 Gα16 cells. Cells were plated in black/clear Poly-D-Lysine plates, (Corning #3667) and incubated with Ca++-sensitive dye (Molecular Devices) for 90 minutes. Stock PGE2 (in 200 proof ethanol) was diluted with FLIPR buffer (containing 1×HBSS, 20 mM HEPES, 0.1% BSA and 2.5 mM Probenecid). Anti-PGE2 antibodies, DVD-Ig molecules or isotype matched control antibodies were also pre-diluted in FLIPR buffer. 25 μl of PGE2 or pre-incubated PGE2/antibody mixture or pre-incubated PGE2/DVD-Ig molecule mixture was added to the wells pre-plated with cells. A dose response of PGE2 was done by a serial titration of PGE2 and was determined using FLIPR1 or Tetra (Molecular Devices). EC50 was determined using GraphPad Prism 5. […] Ca++ flux was monitored using FLIPR1 and data was analyzed using GraphPad Prism 5.

[2] = PGE2-biotinamide ELISA (PGE2 binding); settings: PGE2 VD in N-terminal position, read-out: Direct Bind ELISA N-terminal VD EC50
Protocol: (§1) Enzyme linked immunosorbent assays to screen for anti-PGE2 antibodies or anti-PGE2 containing DVD-Ig molecules that bind prostaglandin E2 were performed as follows. ELISA plates (Costar 3369, Corning, N.Y.) were coated with 50 μl of anti-host Fc IgG (Sigma, St. Louis, Mo.) at 2 μg/ml in PBS (Invitrogen Carlsbad, Calif.). Following an overnight incubation at 4° C., the plate was blocked with 200 μl Superblock (Pierce #37535, Rockford, Ill.). The IgG or DVD-Ig containing samples were diluted to 1 μg/ml in Assay Buffer (10% Superblock in PBS containing 0.05% Surfactamps (Pierce #37535, Rockford, Ill.) and incubated on the plate at 50 μl/well for 1 hour at room temperature. Following the incubation, plates were washed four times with TTBS (Tween-Tris Buffered Solution). For PGE2 binding, PGE2-biotinamide (Cayman Chemicals, Ann Arbor, Mich.) was diluted to 30 nM and serially diluted in Assay Buffer. The titration curve was added to each IgG or DVD-Ig sample at a volume of 50 μl/well and incubated for 1 hour at room temperature. The plates were washed as previously described and 50 μl/well of 1:5000 dilution of streptavidin polyhrp40 (Fitzgerald Industries, Concord, Mass.) in Assay Buffer was added and incubated for 45 minutes at room temperature. A final wash step was performed and the plates were developed using a single step TMB system (Sigma #T8665, St. Louis, Mo.) and 2N H2SO4. Plates were read at 450 nm on a Molecular Devices Spectramax plate reader (Sunnyvale, Calif.). EC50 was determined using GraphPad Prism 5 (GraphPad Software, La Jolla, Calif.) (FIG. 2).
as §1, with “ELISA” for “Enzyme linked immunosorbent assays to screen for anti-PGE2 antibodies or anti-PGE2 containing DVD-Ig molecules that bind prostaglandin E2 were performed as follows. ELISA”, “(Invitrogen,” for “(Invitrogen”, “IgG” for “IgG or DVD-Ig”, “Solution).” for “Solution). For PGE2 binding,”, “Calif.).” for “Calif.) (FIG. 2).”

[3] = Size exclusion chromatography, percent monomer of parent antibodies and DVD-Ig constructs; assay type: physicochemical
Protocol: Antibodies were diluted to 2.5 mg/mL with water and […] is analyzed on a Shimadzu HPLC system using a TSK gel G3000 SWXL column (Tosoh Bioscience, cat#k5539-05k). […] The HPLC system operating conditions are the following: […]

[4] = system: stable cell lines overexpressing a cell-surface antigen of interest or human tumor cell lines; assay: Flow cytometry (FACS) binding to cell surface antigen; assay type: cell-based; settings: IL-6R VD in C-terminal position; 2 μg/mL
Protocol: Stable cell lines overexpressing cell-surface antigen of interest or human tumor cell lines were harvested from tissue culture flasks and resuspended in phosphate buffered saline (PBS) containing 5% fetal calf serum (PBS/FCS). Prior to staining, human tumor cells were incubated on ice with human IgG at 200 μg/ml in PBS/FCS. 1-5×10^5 cells were incubated with antibody or DVD-Ig (1-2 μg/mL) in PBS/FCS for 30-60 minutes on ice. […] After 30 minutes incubation on ice, cells were washed twice and resuspended in PBS/FCS. Fluorescence was measured using a Becton Dickinson FACSCalibur (Becton Dickinson, San Jose, Calif.).
Stable cell lines overexpressing a cell-surface antigen of interest or human tumor cell lines were harvested from tissue culture flasks and resuspended in phosphate buffered saline (PBS) containing 5% fetal bovine serum (PBS/FBS). Prior to staining, human tumor cells were incubated on ice with (100 μl) human IgG at 5 μg/ml in PBS/FCS. 1-5×10^5 cells were incubated with antibody or DVD-Ig (2 μg/mL) in PBS/FBS for 30-60 minutes on ice. […] After 30 minutes incubation on ice, cells were washed twice and resuspended in PBS/FBS. Fluorescence was measured using a Becton Dickinson FACSCalibur (Becton Dickinson, San Jose, Calif.).
The geometric mean is the n root of the multiplication product of n fluorescent signals (a1×a2×a3 . . . an). […]

[5] = system: C57BL6/N mice, LPS/D-Galactosamine-induced lethality; assay: LPS-D-galactosamine-induced lethality; assay type: in vivo, mouse; settings: 12 mg/kg IP
Protocol: Saline alone was used as a negative control. Another group received […] 8C11-1E10, an anti-mouse TNF monoclonal antibody, as a positive control.
At the time of challenge, the mice were injected i.p. with 500 μL dose volume of saline containing 100 ng/mouse LPS (Sigma L4130, lot 095K4056, St. Louis, Mo.) and 20 mg/mouse D-Galactosamine (Sigma G-0500, lot 048K1547, St. Louis, Mo.). The mice were then monitored for lethality twice a day for 48 hours. At 48 hours the remaining surviving mice were sacrificed and bled for plasma antibody levels.

| Molecule | EC50 [1] | EC50 [2] | % Monomer (purity) [3] | FACS Geometric Mean C-terminal [4] | % Survival [5] | Mean Plasma Ab Concentration [5] |
| --- | --- | --- | --- | --- | --- | --- |
| DVD151: DVD-Ig construct listed in Table 4 (antibody) VH: EVQLVQSGAEVKKPGASVKVSCKASGYTFTKYWLGWVRQAPGQGLEWMGDIYPGYDYTHYNEKFKDRVTLTTDTSTSTAYMELRSLRSDDTAVYYCARSDGSSTYWGQGTLVTVSSASTKGPEVQLQESGPGLVRPSQTLSLTCTVSGYSITSDHAWSWVRQPPGRGLEWIGYISYSGITTYNPSLKSRVTMLRDTSKNQFSLRLSSVTAADTAVYYCARSLARTTAMDYWGQGSLVTVSS VL: DVLMTQTPLSLPVTPGEPASISCTSSQNIVHSNGNTYLEWYLQKPGQSPQLLIYKVSNRFSGVPDRFSGSGSGTDFTLKISRVEAEDVGVYYCFQVSHVPYTFGGGTKVEIKRTVAAPDIQMTQSPSSLSASVGDRVTITCRASQDISSYLNWYQQKPGKAPKLLIYYTSRLHSGVPSRFSGSGSGTDFTFTISSLQPEDIATYYCQQGNTLPYTFGQGTKVEIKR | 0.036 nM | 1.52 nM | 92.7% | 0.21 | – | – |
| 8C11: murine anti-mouse TNFα monoclonal antibody clone (antibody, V domains shown) VH: EFQLQQSGPELVKPGASVRISCKASGYSFTDYNMNWVKQSNGKSLEWVGVINPNYGSSTYNQKFKGKATLTVDQSSSTAYMQLNSLTSEDSAVYYCARKWGQLGRGFFDVWGTGTTVTVSS VL: QIVLSQSPAILSASPGEKVTMTCRASSSVSYMHWFQQKPGSSPKPWIYATSNLASGVPARFSGSGSGTSYSLTISRVEAEDAATYYCQQWSSSPLTFGAGTKLELKR | – | – | – | – | 100% | 65 ± 4.0 µg/mL |
